# Data reported in the supplement of paper PMC6379048.
# Experiments:
# [1] = molecular target: T1, CELF2 (UniProt O95319); test: EC50 of free RNA motif oligo competing protein binding to immobilised probe
# T1 sequence: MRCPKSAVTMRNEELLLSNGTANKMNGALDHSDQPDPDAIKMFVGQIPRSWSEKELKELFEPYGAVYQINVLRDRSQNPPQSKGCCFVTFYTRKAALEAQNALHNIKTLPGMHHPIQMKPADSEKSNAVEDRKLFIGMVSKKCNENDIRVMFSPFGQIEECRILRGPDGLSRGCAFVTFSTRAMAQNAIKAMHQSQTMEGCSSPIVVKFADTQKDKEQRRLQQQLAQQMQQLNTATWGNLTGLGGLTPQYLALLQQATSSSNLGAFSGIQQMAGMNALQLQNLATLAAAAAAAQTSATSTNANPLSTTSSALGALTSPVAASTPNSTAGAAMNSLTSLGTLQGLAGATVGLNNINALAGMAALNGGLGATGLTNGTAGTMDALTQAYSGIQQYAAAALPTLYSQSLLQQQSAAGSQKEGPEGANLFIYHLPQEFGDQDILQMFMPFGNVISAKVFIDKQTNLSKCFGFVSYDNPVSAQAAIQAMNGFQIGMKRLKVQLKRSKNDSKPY
# Method: (§1)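 Competition-binding assay: HEK293-FT cell lysate (2.5 mg protein) pre-incubated 1 h at 4°C with free motif-containing RNA oligos (0 to 30 µM, 12 doses), then pulled down with the same 5'-amino-C6 RNA oligos immobilised on NHS-Sepharose beads (30 min, 4°C). Bound proteins were quantified by label-free LC-MS/MS and normalised to the water control. EC50 came from a four-parameter log-logistic fit; Kd = EC50 x depletion factor. Random/reversed control probes are dropped.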
# [2] = molecular target: ZC3HAV1 (UniProt Q7Z2W4); test: as above
# Chain of ZC3HAV1 (Q7Z2W4 whole entry): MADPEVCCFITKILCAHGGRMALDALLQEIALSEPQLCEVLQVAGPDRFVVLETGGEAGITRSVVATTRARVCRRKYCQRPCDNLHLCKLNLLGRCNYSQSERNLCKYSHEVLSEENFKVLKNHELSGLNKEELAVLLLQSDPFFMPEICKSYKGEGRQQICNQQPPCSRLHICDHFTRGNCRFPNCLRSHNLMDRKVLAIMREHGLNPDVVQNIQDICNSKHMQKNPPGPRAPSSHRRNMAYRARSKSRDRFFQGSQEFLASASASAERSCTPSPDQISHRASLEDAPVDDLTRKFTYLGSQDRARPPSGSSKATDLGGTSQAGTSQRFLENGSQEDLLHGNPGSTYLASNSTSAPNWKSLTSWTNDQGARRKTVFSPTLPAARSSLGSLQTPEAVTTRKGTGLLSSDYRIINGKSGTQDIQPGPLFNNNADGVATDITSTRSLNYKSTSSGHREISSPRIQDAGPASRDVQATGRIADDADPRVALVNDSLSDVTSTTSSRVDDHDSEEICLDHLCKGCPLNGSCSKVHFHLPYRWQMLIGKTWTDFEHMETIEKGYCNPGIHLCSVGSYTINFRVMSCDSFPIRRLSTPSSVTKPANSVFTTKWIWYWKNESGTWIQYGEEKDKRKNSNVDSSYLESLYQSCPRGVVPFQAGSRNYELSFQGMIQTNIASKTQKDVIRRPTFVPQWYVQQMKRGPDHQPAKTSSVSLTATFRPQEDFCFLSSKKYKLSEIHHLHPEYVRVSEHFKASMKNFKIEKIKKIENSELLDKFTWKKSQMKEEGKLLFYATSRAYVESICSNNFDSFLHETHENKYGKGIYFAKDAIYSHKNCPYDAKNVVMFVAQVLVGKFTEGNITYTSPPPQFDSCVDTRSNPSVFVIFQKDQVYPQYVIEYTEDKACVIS
# Method: as §1
# [3] = molecular target: T2, HNRNPUL1 (UniProt Q9BUJ2); test: as above
# T2 sequence: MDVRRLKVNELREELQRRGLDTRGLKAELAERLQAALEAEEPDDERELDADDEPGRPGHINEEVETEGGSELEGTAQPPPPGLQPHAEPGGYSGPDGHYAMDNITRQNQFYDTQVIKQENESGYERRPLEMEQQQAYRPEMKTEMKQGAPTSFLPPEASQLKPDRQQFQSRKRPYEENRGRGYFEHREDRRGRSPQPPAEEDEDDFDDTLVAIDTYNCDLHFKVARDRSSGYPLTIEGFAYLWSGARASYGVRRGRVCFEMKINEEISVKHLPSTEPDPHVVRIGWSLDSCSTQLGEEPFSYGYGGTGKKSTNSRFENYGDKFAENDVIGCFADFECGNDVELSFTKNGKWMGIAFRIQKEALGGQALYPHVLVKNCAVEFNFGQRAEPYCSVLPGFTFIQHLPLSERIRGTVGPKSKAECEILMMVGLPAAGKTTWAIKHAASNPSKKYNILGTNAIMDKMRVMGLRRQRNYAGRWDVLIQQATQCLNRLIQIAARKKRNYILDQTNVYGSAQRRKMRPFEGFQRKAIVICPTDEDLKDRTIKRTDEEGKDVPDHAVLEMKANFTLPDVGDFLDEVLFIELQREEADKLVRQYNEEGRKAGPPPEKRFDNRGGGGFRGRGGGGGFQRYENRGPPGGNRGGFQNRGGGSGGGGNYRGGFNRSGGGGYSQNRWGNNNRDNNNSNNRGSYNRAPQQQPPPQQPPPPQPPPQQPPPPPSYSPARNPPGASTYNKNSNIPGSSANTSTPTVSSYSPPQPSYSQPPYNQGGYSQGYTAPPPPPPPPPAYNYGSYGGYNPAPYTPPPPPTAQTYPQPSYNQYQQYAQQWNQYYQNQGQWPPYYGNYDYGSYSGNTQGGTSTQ
# Method: as §1
# [4] = molecular target: T1, CELF2; test: Kd (EC50 corrected by depletion factor)
# How it was run: (§2)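 Kd was calculated as EC50, taken from a four-parameter log-logistic fit, multiplied by a protein-dependent depletion factor. The assay used HEK293-FT lysate (2.5 mg protein/well) pre-incubated for 1 h at 4°C with free RNA oligos (0 nM to 30 μM), then incubated for 30 min at 4°C with the matching oligos bound through a 5′-amino-C6 linker to NHS-Sepharose beads. Bound proteins were measured by label-free LC-MS/MS and normalised to the control.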
# [5] = molecular target: T3, DIS3L2 (UniProt Q8IYB7); test: Kd (EC50 corrected by depletion factor)
# T3 sequence: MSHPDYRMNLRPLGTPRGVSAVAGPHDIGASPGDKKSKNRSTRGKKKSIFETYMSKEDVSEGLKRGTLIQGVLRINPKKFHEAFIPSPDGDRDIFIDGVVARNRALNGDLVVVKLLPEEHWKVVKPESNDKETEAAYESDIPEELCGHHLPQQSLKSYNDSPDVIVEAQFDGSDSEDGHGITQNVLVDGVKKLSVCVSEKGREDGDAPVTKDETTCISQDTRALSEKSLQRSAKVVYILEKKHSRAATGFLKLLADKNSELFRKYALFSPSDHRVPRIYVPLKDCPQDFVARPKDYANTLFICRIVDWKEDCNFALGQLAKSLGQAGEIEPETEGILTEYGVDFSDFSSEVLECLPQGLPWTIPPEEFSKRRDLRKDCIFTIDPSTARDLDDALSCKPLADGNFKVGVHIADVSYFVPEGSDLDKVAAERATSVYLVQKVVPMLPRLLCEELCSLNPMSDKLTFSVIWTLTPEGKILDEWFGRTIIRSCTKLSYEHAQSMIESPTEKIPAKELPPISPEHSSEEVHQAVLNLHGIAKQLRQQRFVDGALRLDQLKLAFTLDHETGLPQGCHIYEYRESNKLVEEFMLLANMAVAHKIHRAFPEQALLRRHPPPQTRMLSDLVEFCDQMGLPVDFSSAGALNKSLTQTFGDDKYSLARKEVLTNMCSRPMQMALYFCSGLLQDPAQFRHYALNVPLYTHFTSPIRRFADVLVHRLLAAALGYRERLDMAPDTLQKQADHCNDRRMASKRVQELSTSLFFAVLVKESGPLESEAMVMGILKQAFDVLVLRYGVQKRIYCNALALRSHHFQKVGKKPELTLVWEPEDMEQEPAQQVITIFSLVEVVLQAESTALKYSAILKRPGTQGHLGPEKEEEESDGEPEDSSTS
# How it was run: as §2
sequence,measurement,setting,value
AAUAAA,EC50,[1],1.25 µM
same,EC50,[2],3.9 µM
same,EC50,[3],1.41 µM
same,Kd,[4],0.114 µM
same,Kd,[5],0.383 µM
CUGUCCU,EC50,[1],2.67 µM
same,EC50,[2],1.32 µM
same,EC50,[3],0.152 µM
same,Kd,[4],0.948 µM
same,Kd,[5],0.774 µM
UAUUUAU,EC50,[1],0.517 µM
same,EC50,[2],5.38 µM
same,EC50,[3],0.643 µM
same,Kd,[4],0.283 µM
same,Kd,[5],0.29 µM
